Measured values taken from paper PMC13462943.

B1: GLP methyltransferase domain (aa 1001-1266), wild type [human] / itself (parent)
chain: DRPSPVERIVSRDIARGYERIPIPCVNAVDSEPCPSNYKYVSQNCVTSPMNIDRNITHLQYCVCIDDCSSSNCMCGQLSMRCWYDKDGRLLPEFNMAEPPLIFECNHACSCWRNCRNRVVQNGLRARLQLYRTRDMGWGVRSLQDIPPGTFVCEYVGELISDSEADVREEDSYLFDLDNKDGEVYCIDARFYGNVSRFINHHCEPNLVPVRVFMAHQDLRFPRIAFFSTRLIEAGEQLGFDYGERFWDIKGKLFSCRCGSPKCRHS

Variants of: B1
Test: native mass spectrometry (nESI-MS)
Conditions: with itself; parent: 1; read off a plot

Q: How did the ratio to parent turn out when chain 1 C73Y was run?
A: The ratio to parent was 0.34.
